Test results taken from patent publication US20160208226A1, “Transaminase Biocatalysts” (COMMONWEALTH SCIENTIFIC AND INDUSTRIAL RESEARCH ORGANISATION, priority 2013, published 2016).

B1: p7: pyruvate: ω-amino acid transaminase from Pseudomonas sp., amino acid sequence SEQ ID NO:2 (protein, listed as Pseudomonas sp.)
chain: MGSSHHHHHHSSGLVPRGSHMTDYAKLFEQDRAHFMHPSTHAHDHASGALPGRIITGASGVRIRDHQGRELLDAFAGLYCVNIGYGRLEVADAIHEQAKQLAYYHTYVGHASEAIIELSARIIRDWAPAGMKKVYYGLSGSDANETQVKLVRYYNNVLGRPQKKKIISRQRGYHGSGIVTGSLTGLASFHQHFDLPVEGVKHTLCPHFYKAPAGMDEAAFVRHCAQELENLILAEGPDTVAAFIGEPVMGTGGIIVPPKGYWEAIQAVLAKYDVLLIADEVVCAFGRLGDKMGSQRHAMRPDLITTAKGLTSAYAPLSAVIVGEKVWDVIDSASTREGAMGHGWTYSGHPICAAAALANLDILERENITANAADVGGYLNQQLRQAFEGHPLVGEVRGDGMLAALEFMADREARTPFDAALKVGPKVSAACLERGMIARAMPHGDILGFAPPLVLSRAEADEVVGIAKAAVDAVAAEVL
B2: p7N15: de novo peptide sequence based on p7, produced by ancestral reconstruction; SEQ ID NO:8 (protein)
chain: MTDLDQLFEMDRAHFMHPSTHAHDHASGALPGRIITGGKGIRIQDHEGREYIDAFAGLYCVNIGYGRTEVADAIYEQAKELAYYHTYVGHSTEAIIELSSRIIRDWAPAGMKKVYYGMSGSDANETQIKLVWYYNNVLGRPQKKKIISRQRGYHGSGIMTGSLTGLPSFHQHFDLPIERIKHTVCPHWYKAPAGMSEAQFVRYCADELEKLILAEGPDTVAAFIGEPVMGTGGIIPPPQGYWEAIQAVLNKYDILLIADEVVCGFGRLGSKMGSQHYGMKPDLITVAKGLTSAYAPLSGVIVGEKVWDVIEKGSQEHGPMGHGWTYSGHPICAAAALANLDILERENLTGNAADVGAYLQQRLRETFGGHPLVGEVRGVGMLAALEFMADKDARTPFDPALKVGPKVSAACLEDGMIARAMPHGDILGFAPPLVITRAEVDEIVGIAKQAVDEVADEVL
modifications: Molecule produced by ancestral reconstruction
B3: p7N16: de novo peptide sequence based on p7, produced by ancestral reconstruction; SEQ ID NO:9 (protein)
chain: MQSLDQLFEMDRAHFMHPSTHAHDHASGALPGRIITGGKGIRIEDHEGREYIDAFAGLYCVNIGYGRTEVADAIYEQAKQLAYYHTYVGHSTDAIIELSSRIIRDWAPAGMKKVYYGMSGSDANETQIKLVWYYNNVLGRPNKKKIISRERGYHGSGIVTGSLTGLPSFHQHFDLPIDRVKHTVCPHWYRAPAGMSEAQFVAYCVEELEKLIAREGADTIAAFIAEPVMGTGGIIPPPQGYWEAIQAVLRKHDILLIADEVVCGFGRLGSKMGSQHYGIKPDLITVAKGLTSAYAPLSGVIVGEKVWDVIEKGSQEHGPMGHGWTYSGHPICAAAALANLDILERENLTGNAADVGAYLQQRLHEAFGAHPLVGEVRGVGMLAALEFMADKDARTPFDPALKVGPKVSAAALEDGMIARAMPHGDILGFAPPLVTTRAEVDEIVGIAKQAVDEVADEVL
modifications: Molecule produced by ancestral reconstruction
B4: p7N6: de novo peptide sequence based on p7, produced by ancestral reconstruction; SEQ ID NO:7 (protein)
chain: MTDFDQLFEQDRAHFMHPSTHAHDHASGALPGRIITGASGIRIRDHEGRELIDAFAGLYCVNIGYGRTEVADAIYKQAKELAYYHTYVGHSTEAIIELSSRIIRDWAPAGMKKVYYGLSGSDANETQIKLVRYYNNVLGRPQKKKIISRQRGYHGSGIMTGSLTGLPSFHQHFDLPVEGIKHTVCPHWYKAPAGMDEAAFVRYCADELEKLILAEGPDTVAAFIGEPVMGTGGIIVPPKGYWEAIQAVLNKYDVLLIADEVVCAFGRLGSKMGSQRYGMRPDLITTAKGLTSAYAPLSAVIVGEKVWDVIEKASQKEGAMGHGWTYSGHPICAAAALANLDILERENLTANAADVGAYLNQRLRETFEGHPLVGEVRGDGMLAALEFMADREARTPFDPALKVGPKVSAACLEDGMIARAMPHGDILGFAPPLVLTRAEADEIVGIAKAAVDEVAGEVL
modifications: Molecule produced by ancestral reconstruction
B5: p7N17: de novo peptide sequence based on p7, produced by ancestral reconstruction; SEQ ID NO:10 (protein)
chain: MTSLDQLFEEDRAHFMHPSTHAHDHASGALPGKIVTGGKGIRIEDHQGREYIDAFAGLYCVNIGYGRTEVADAIYEQAKQLAYYHTYVGHSTDAIIELSSRIIRDWAPAGMKKVYYGMSGSDANETQIKIVWYYNNVLGRPNKKKIISRERGYHGSGIVTGSLTGLPSFHQHFDLPIDRVKHTVCPHWYKAPAGMSEAQFVAYCVEELEKLIAREGADTIAAFIAEPVMGTGGIIAPPQGYWEAIQAVLRKHDILLISDEVVCGFGRLGSKMGAQHYGIKPDLITVAKGLTSAYAPLSGVIVGEKVWDVIEKGSQEHGPMGHGWTYSGHPICAAAALANLDILERENLTGNAADVGAYLQQRLHEAFGAHPLVGEVRGVGMLAALEFMADKDARTPFDPALKVGPKVSAAALEDGVIARAMPHGDILGFAPPLVTTRAEVDEIVGIVKQAVDEVADEVL
modifications: Molecule produced by ancestral reconstruction
B6: p4: pyruvate: ω-amino acid transaminase from Pseudomonas sp., amino acid sequence SEQ ID NO:6 (protein, listed as Pseudomonas sp.)
chain: MTKQTSAQTQHWQALSREHHLAPFTDYKQLNEKGARIITKAEGVYLWDSEGNKILDGMAGLWCMNVGYGRKELAEVAYKQMLELPYYNLFFQTAHPPALELAKAIADIAPEGMNHVFFTGSGSESNDTVLRMVRHYWSIKGKPQKKVVIGRWNGYHGSTVAGVSLGGMKALHSQGDLPIPGIVHIAQPYWYGEGGDMSAEEFGVWAAEQLEKKILEVGEENVAAFIAEPIQGAGGVIVPPDTYWPKIREILAKYEILFIADEVICGFGRTGEWFGSQYYGNAPDLMPIAKGLTSGYIPMGGVIVRDEIVDTLNEGGEFYHGFTYSGHPVAAAVALENIRILREEKIVETVKAETAPYLQKRWQELADHPLVGEARGVGMVGALELVKNKKTRERFENGVGMLCREHCFRNGLIMRAVGDTMIISPPLVITKPEIDELITLARKCLDQTAAVALS

Test: Coupled dehydrogenase assays for transaminase activity of the Pseudomonas sp. proteins and ancestral reconstructions
Format: biochemical
Settings: for pH optimum: UV absorbance at 340 nm, pH range 7.5-10; for pH optimum / activity with ω-amino acids including long chain C11 and C12: 28° C.; for activity with ω-amino acids including long chain C11 and C12: 340 nm, pH 7.5-10; for activity of ancestral reconstruction proteins in the coupled assays: E. coli expressed, purified proteins
Method: Activity for each protein was assessed using coupled dehydrogenase assays as described previously. A typical assay comprised:
Substrate (6.25 mM final concentration in potassium phosphate buffer)
Co-substrate (pyruvate (0.5 mM final concentration) or α-KG (0.25 mM final concentration)
NAD (1.25 mM final concentration)
Dehydrogenase (1 μL from ADH-≧35 units/mL stock solution or GDH≧35 units/mg protein stock)
Transaminase (final concentration dependent)
Potassium phosphate buffer (100 mM)
UV absorbance at 340 nm was recorded at 28° C. over a pH range of 7.5-10 with a range of substrates.
Proteins encoded by p7N6, p7N15, p7N16, p7N17, p7N43 and p7N48 were expressed using an E. coli recombinant expression platform and subsequently purified.
Each of the proteins were assayed for substrate specificity. Substrates identified by assaying for each of the proteins are summarized below.

Molecule	pH optimum	smallest substrate accepted (coupled dehydrogenase assay)	activity with ω-amino acids including long chain C11 and C12 (coupled dehydrogenase assay)	activity of ancestral reconstruction proteins in the coupled assays
B1	~10	C4 (γ-aminobutyrate; GABA)	shown the desired activity with ω-amino acids, notably including long chain amino acids C11 and C12	
B2				activity in accordance with p7
B3				activity in accordance with p7
B4				activity in accordance with p7
B5				activity in accordance with p7
B6	~10		shown the desired activity with ω-amino acids, notably including long chain amino acids C11 and C12	
